T1: human DLL3 on cells (HEK293T cells expressing human DLL3; SHP-77 cells) (human, UniProt Q9NYJ7 27-618)
T1 construct: whole, on cells; also called HEK-DLL3
T1 sequence (looked up): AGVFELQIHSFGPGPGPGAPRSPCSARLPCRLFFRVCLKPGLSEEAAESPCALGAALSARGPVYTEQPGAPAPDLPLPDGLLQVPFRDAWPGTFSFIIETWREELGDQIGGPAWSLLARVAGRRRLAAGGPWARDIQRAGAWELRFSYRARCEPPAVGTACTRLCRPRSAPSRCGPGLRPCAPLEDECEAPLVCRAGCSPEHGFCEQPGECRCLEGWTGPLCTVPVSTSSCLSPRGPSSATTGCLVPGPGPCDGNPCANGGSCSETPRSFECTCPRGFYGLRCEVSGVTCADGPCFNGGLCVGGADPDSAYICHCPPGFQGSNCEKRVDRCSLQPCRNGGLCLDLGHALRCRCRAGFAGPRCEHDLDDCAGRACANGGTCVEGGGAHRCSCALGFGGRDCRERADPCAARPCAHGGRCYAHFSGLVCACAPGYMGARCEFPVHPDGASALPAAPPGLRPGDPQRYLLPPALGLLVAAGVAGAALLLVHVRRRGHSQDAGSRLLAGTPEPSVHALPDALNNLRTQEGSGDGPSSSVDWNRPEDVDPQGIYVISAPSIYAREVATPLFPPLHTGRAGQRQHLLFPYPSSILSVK

T2: human DLL3 (recombinant antigen) (human, UniProt Q9NYJ7 27-492, limits assumed)
T2 construct: also called hDLL3
T2 sequence (looked up): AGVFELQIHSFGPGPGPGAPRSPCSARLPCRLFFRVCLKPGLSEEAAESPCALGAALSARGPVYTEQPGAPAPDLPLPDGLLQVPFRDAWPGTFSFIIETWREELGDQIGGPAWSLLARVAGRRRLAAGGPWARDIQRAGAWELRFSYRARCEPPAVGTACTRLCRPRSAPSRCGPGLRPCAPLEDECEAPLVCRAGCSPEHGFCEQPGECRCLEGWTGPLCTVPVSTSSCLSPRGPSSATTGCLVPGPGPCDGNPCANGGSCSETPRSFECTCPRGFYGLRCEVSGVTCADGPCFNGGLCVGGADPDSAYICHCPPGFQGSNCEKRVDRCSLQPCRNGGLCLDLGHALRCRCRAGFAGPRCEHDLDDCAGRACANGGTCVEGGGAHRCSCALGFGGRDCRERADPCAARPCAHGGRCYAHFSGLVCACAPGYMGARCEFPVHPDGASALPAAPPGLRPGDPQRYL

T3: mouse DLL3 (recombinant antigen) (mouse, UniProt O88516 25-477, limits assumed)
T3 construct: also called mDLL3
T3 sequence (looked up): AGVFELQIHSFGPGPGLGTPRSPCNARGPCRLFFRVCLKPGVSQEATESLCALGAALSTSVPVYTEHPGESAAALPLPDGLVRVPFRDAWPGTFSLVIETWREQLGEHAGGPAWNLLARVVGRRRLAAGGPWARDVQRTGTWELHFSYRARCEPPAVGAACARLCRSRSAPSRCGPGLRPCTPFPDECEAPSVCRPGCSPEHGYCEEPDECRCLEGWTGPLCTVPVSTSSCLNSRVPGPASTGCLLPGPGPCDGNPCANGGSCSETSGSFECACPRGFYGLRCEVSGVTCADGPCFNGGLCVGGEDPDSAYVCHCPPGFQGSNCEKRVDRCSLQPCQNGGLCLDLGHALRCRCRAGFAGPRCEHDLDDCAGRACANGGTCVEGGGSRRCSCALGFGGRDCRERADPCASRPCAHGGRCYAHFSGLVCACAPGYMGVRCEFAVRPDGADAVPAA

B1: Clone 126 VHH-Fc, H435Q-Fc format (Fc fusion)
chain: QVQLVESGGGMVQPGGSLRLSCAASGITFSMYSMSWYRQPPGKQRELVAATTTFGSTNYADSVKGRFTISRDNAKNTVYLQMNSLKPEDTAVYLCNARFTSEEYWGQGTQVTVSS
notes: not shown: hinge and human IgG1 Fc with H435Q (EU)
B2: Clone 186 VHH-Fc, H435Q-Fc format (Fc fusion)
chain: QVQVVESGGGLVQPGGSLTLSCAASGFDFSTYTVNWYRQAPGKEREKVARISSTGTTTNYANSAKGRFTLSRDNAKNRVYLQMNNLKPEDTAVYFCNFERFDSNYWGQGTQVTVSS
notes: also called 186 (H435Q-Fc); not shown: hinge and human IgG1 Fc with H435Q (EU)
B3: Clone 107 VHH-Fc, H435Q-Fc format (Fc fusion)
chain: QVQLVESGGGLVQAGDSLRLSCVASDRTFSSYAVGWFRQAPGKEREFVAAISWNGGRTLYTDSVTGRFTISRDNAKSTVYLQMNGLKPEDTAVYYCAARPAAPTRRLEYDYWGQGTQVTVSS
notes: as for B1
B4: Anti-FOLR1x2; Anti-DLL3x2; GGSx4 (bispecific tetravalent VHH-VHH-Fc) (bispecific antibody, not shown: a dimerising Fc or GST)
chain: QVQLVESGGGLVQPGGSLRLSCAASGFTVSNSVMAWYRQTPGNEREFVAIINSIGITNYADSVKGRFTISRDNSKNTLYLQMNSLRAEDTAVYVCNRNFDRIYWGQGTLVTVSSGGSGGSGGSGGSEVQLVESGGGEVQPGGSLRLSCAASGSIFSINAMGWYRQAPGKQRELVAGFTGDTNTIYAESVKGRFTISRDNAKNTVYLQMSSLRAEDTAVYYCAADVQLFSRDYEFYWGQGTLVTVKP
notes: homodimer; 104,665 Da; also called (GGS)4
B5: FOLR1 VHH (VHH-Fc control) (Fc fusion, not shown: a dimerising Fc or GST)
chain: QVQLVESGGGLVQPGGSLRLSCAASGFTVSNSVMAWYRQTPGNEREFVAIINSIGITNYADSVKGRFTISRDNSKNTLYLQMNSLRAEDTAVYVCNRNFDRIYWGQGTLVTVSS
B6: Clone 100 VHH-Fc, H435Q-Fc format (Fc fusion)
chain: QVQLVESGGGSVQPGGSLRLSCAASGIVFNSDVMGWYRQVPGKPRELVATITGGGSTNYATSVKGRFTISRDNAKNTVYLQMNSLRPEDTAVYYCNGRRGDSMLAFWAQGTQVTVSS
notes: also called 100 (H435Q-Fc); not shown: hinge and human IgG1 Fc with H435Q (EU)
B7: Clone 24 VHH-Fc, H435Q-Fc format (Fc fusion)
chain: QVQYVESGGGLVQPGGSLRLSCAASGFTFSSYRINWYRQPPGKGRELVGSITDTGSTNYADSVKGRFTISRDNAKNTVYLQMSSLKPEDTAVYYCRAPTIAAYWGQGTQVTVSS
notes: also called 24 (H435Q-Fc); not shown: hinge and human IgG1 Fc with H435Q (EU)
B8: Anti-FOLR1x2; Anti-DLL3x2; GGSx3 (bispecific tetravalent VHH-VHH-Fc) (bispecific antibody, not shown: a dimerising Fc or GST)
chain: QVQLVESGGGLVQPGGSLRLSCAASGFTVSNSVMAWYRQTPGNEREFVAIINSIGITNYADSVKGRFTISRDNSKNTLYLQMNSLRAEDTAVYVCNRNFDRIYWGQGTLVTVSSGGSGGSGGSEVQLVESGGGEVQPGGSLRLSCAASGSIFSINAMGWYRQAPGKQRELVAGFTGDTNTIYAESVKGRFTISRDNAKNTVYLQMSSLRAEDTAVYYCAADVQLFSRDYEFYWGQGTLVTVKP
notes: homodimer; 104,263 Da; also called (GGS)3
B9: Anti-FOLR1x2; Anti-DLL3x2; GGGGSx3 (bispecific tetravalent VHH-VHH-Fc) (bispecific antibody, not shown: a dimerising Fc or GST)
chain: QVQLVESGGGLVQPGGSLRLSCAASGFTVSNSVMAWYRQTPGNEREFVAIINSIGITNYADSVKGRFTISRDNSKNTLYLQMNSLRAEDTAVYVCNRNFDRIYWGQGTLVTVSSGGGGSGGGGSGGGGSEVQLVESGGGEVQPGGSLRLSCAASGSIFSINAMGWYRQAPGKQRELVAGFTGDTNTIYAESVKGRFTISRDNAKNTVYLQMSSLRAEDTAVYYCAADVQLFSRDYEFYWGQGTLVTVKP
notes: homodimer; 104,948 Da; also called (GGGGS)3

Experiments:
[1] = biological target: T1, human DLL3 on cells (HEK293T cells …); test: flow cytometry on SHP-77 cells (endogenous DLL3), H435Q-Fc format
[2] = biological target: T1, human DLL3 on cells (HEK293T cells …); test: cell-based or functional assay
[3] = biological target: T2, human DLL3 (recombinant antigen); test: affinity to hDLL3, H435Q-Fc format; method not given
[4] = biological target: T4, human FOLR1 (recombinant antigen) (human, UniProt P15328 25-234, limits assumed); test: ELISA on hFOLR1
T4 construct: also called hFOLR1
T4 sequence (P15328 25-234 limits assumed): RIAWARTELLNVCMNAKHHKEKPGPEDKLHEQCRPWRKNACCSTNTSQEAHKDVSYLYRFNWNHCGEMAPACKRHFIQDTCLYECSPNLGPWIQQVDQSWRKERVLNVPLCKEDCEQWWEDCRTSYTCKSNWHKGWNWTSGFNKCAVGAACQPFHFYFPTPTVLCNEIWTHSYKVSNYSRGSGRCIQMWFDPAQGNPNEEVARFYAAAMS

[5] = biological target: T5, mouse FOLR1 (recombinant antigen) (mouse, UniProt P35846 25-232, limits assumed); test: BLI (Octet), construct captured on AHC biosensor, mFOLR1 as analyte
T5 construct: also called mFOLR1
T5 sequence (P35846 25-232 limits assumed): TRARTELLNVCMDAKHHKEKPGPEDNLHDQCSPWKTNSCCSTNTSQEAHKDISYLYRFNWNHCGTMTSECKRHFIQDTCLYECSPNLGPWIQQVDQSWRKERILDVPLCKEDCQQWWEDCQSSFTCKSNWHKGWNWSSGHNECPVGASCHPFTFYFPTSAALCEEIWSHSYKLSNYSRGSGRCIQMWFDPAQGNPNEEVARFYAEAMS
Procedure: (§1) Antibody affinity was assessed using Octet Red96e (ForteBio). […] Each cycle was performed with orbital shake speed of 1,000 rpm. […] A set of AHC biosensors was dipped in kinetics buffer for baseline step of 60s. Anti-Target VHH-Fc (5 μg/mL, in kinetics buffer) was loaded onto the biosensors for 240 s followed by a second baseline step of 30 s. The IgG captured sensors were dipped into buffer for single reference subtraction to compensate natural dissociation of capture IgG. Each biosensor was then dipped into corresponding concentration of target protein (human, murine or cynomolgus monomeric protein) for 600 s, followed by 1800 s of dissociation time in kinetics buffer, or conditions as optimized. A new set of AHC biosensors was used for every VHH-Fc. The data was analysed by global fit 1:1 model for the association and dissociation step, (Octet software version v11.0).
(§2) Tetramers and VHH-Fcs were assessed for affinity to target antigens. AHC Octet biosensors were used to capture tetramer/VHH-Fc and then dipped into antigen.

[6] = biological target: T5, mouse FOLR1 (recombinant antigen); test: ELISA on mFOLR1
[7] = biological target: T2, human DLL3 (recombinant antigen); test: BLI (Octet), construct captured on AHC biosensor, hDLL3 as analyte
Procedure: as §1, §2

[8] = biological target: T3, mouse DLL3 (recombinant antigen); test: BLI (Octet), construct captured on AHC biosensor, mDLL3 as analyte; row label taken as a misprint for the bispecific
Procedure: as §1, §2

[9] = biological target: T6, FOLR1 on OVCAR3 cells (UniProt P15328 25-234); test: cell binding to FOLR1-positive OVCAR3 cells
T6 construct: whole, on cells; OVCAR3 is a human ovarian cancer line; also called FOLR1-positive OVCAR3 cells
T6 sequence (P15328 25-234): as the sequence (P15328 25-234 limits assumed) above

[10] = biological target: T4, human FOLR1 (recombinant antigen); test: BLI (Octet), construct captured on AHC biosensor, hFOLR1 as analyte
Procedure: as §1, §2

[11] = biological target: T4, human FOLR1 (recombinant antigen); test: BLI (Octet), VHH-Fc captured on AHC biosensor, hFOLR1 as analyte
Procedure: as §1
(§3) AHC Octet biosensors were used to capture tetramer/VHH-Fc and then dipped into antigen.

[12] = biological target: T3, mouse DLL3 (recombinant antigen); test: BLI (Octet), VHH-Fc captured on AHC biosensor, mDLL3 as analyte
Procedure: as §1, §3

[13] = biological target: T5, mouse FOLR1 (recombinant antigen); test: BLI (Octet), VHH-Fc captured on AHC biosensor, mFOLR1 as analyte
Procedure: as §1, §3

[14] = biological target: T2, human DLL3 (recombinant antigen); test: BLI (Octet), VHH-Fc captured on AHC biosensor, hDLL3 as analyte
Procedure: as §1, §3

Binder | EC50 [1] [nM] | H435Q-Fc SHP-77 Internalization FOI [2] [fold over isotype] | Kd [3] [nM] | EC50 [4] [nM] | Kd [5] [nM] | koff [5] [s⁻¹] | kon [5] [M⁻¹ s⁻¹] | EC50 [6] [nM] | Kd [7] [nM] | koff [7] [s⁻¹] | kon [7] [M⁻¹ s⁻¹] | Kd [8] [nM] | koff [8] [s⁻¹] | kon [8] [M⁻¹ s⁻¹] | EC50 [9] [nM] | Kd [10] [nM] | koff [10] [s⁻¹] | kon [10] [M⁻¹ s⁻¹] | further results
B1 | 0.44 | 1.19 | < 1 |  |  |  |  |  |  |  |  |  |  |  |  |  |  |  | 
B2 | 0.47 | 1.18 | 0.55 |  |  |  |  |  |  |  |  |  |  |  |  |  |  |  | 
B3 | 0.74 | 1.27 | 0.72 |  |  |  |  |  |  |  |  |  |  |  |  |  |  |  | 
B4 |  |  |  | 0.11 | 7.99 | 0.00386 | 483000 | 0.07 | 1.24 | 0.000267 | 215000 | 2.88 | 0.000642 | 223000 | 0.59 | 2.32 | 0.000932 | 401000 | 
B5 |  |  |  | 0.12 |  |  |  | 0.08 |  |  |  |  |  |  |  |  |  |  | Kd [11]: 2.19 nM; koff [11]: 0.000828 s⁻¹; kon [11]: 379000 M⁻¹ s⁻¹; binding result [12]: no binding; Kd [13]: 4.67 nM; koff [13]: 0.00312 s⁻¹; kon [13]: 668000 M⁻¹ s⁻¹; binding result [14]: no binding
B6 | 1.16 | 1.19 | 0.2 |  |  |  |  |  |  |  |  |  |  |  |  |  |  |  | 
B7 | 1.2 | 1.19 | 1.08 |  |  |  |  |  |  |  |  |  |  |  |  |  |  |  | 
B8 |  |  |  | 0.14 | 7 | 0.00399 | 553000 | 0.09 | 1.43 | 0.000312 | 219000 | 2.92 | 0.000659 | 226000 | 0.58 | 2.68 | 0.00102 | 381000 | 
B9 |  |  |  | 0.13 | 8.32 | 0.00407 | 490000 | 0.08 | 1.53 | 0.000306 | 200000 | 3.09 | 0.000684 | 222000 | 0.7 | 2.75 | 0.00111 | 405000 | 
